Results taken from the RNAGym collection of RNA variant scans (doi:10.1093/molbev/msab373).

B1: Azoarcus group I ribozyme (parent)
chain: GUGCCUUGCGCCGGGAAACCACGCAAGGGAUGGUGUCAAAUUCGGCGAAACCUAAGCGCCCGCCCGGGCGUAUGGCAACGCCGAGCCAAGCUUCGGCGCCUGCGCCGAUGAAGGUGUAGAGACUAGACGGCACCCACCUAAGGCAAACGCUAUGGUGAAGGCAUAGUCCAGGGAGUGGCGAAAGUCACACAAACCGG

Variants of: B1
Test: reverse-splicing fitness (ratio to wild type); higher = more active; in vitro selection; Mg2+ level not given
How it was run: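 An in vitro group I ribozyme library with randomized positions was T7-transcribed and gel-purified. In triplicate, 10 pmol RNA in EPPS pH 7.5 was reacted with 50 pmoles of a 30-nt RNA substrate for 1 h at 37 °C across several added MgCl2 levels (1–48 mM), then stopped with EDTA. Products were reverse transcribed from a substrate-complementary primer, PCR-amplified and sequenced (HiSeq 4000). Fitness is a variant's read proportion after selection over that before, normalised to wild type.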

Variant | reverse-splicing fitness
GUGCCUUGCGCCGGGAAACCACGCAAGGGAUGGUGUCAAAUUCGGCGAAACCUAAGCGCCCGCCCGGGCGUAUGGCAACGCGGAGCCAAGCUUCGGCGCCUGCGCCGAUGGAGGUGUAGCGACUAGACGGCACCCACCUAAGGCUAACGGUAUGGUGAAGGCAUAGUCGAGGGAGGGGCGAAAGUCACACAAACCGG [C82G A111G A120C A145U C150G C169G U176G] | 0.00515
GUGCCUUGCGCCGGGAAACCACGCAAGGGAUGGUGUCAAAUUCGGCGAAACCUAAGCGCCCGCCCGGGCGUAUGGCAACGCGGAGCCAAGCUUCGGCGCCUGCGCCGAUGGAGGUGUAGCGACUAGACGGCACCCACCUAAGGCUAACGGUAUGGUGAAGGCAUAGUCGAGGGAGAGGCGAAAGUCACACAAACCGG [C82G A111G A120C A145U C150G C169G U176A] | 0.00957
GUGCCUUGCGCCGGGAAACCACGCAAGGGAUGGUGUCAAAUUCGGCGAAACCUAAGCGCCCGCCCGGGCGUAUGGCAACGCGGAGCCAAGCUUCGGCGCCUGCGCCGAUGGAGGUGUAGCGACUAGACGGCACCCACCUAAGGCUAACGAUAUGGUGAAGGCAUAGUCAAGGGAGGGGCGAAAGUCACACAAACCGG [C82G A111G A120C A145U C150A C169A U176G] | 0.0061
GUGCCUUGCGCCGGGAAACCACGCAAGGGAUGGUGUCAAAUUCGGCGAAACCUAAGCGCCCGCCCGGGCGUAUGGCAACGCGGAGCCAAGCUUCGGCGCCUGCGCCGAUGGAGGUGUAGCGACUAGACGGCACCCACCUAAGGCUAACGAUAUGGUGAAGGCAUAGUCAAGGGAGCGGCGAAAGUCACACAAACCGG [C82G A111G A120C A145U C150A C169A U176C] | 0.0161
GUGCCUUGCGCCGGGAAACCACGCAAGGGAUGGUGUCAAAUUCGGCGAAACCUAAGCGCCCGCCCGGGCGUAUGGCAACGCGGAGCCAAGCUUCGGCGCCUGCGCCGAUGGAGGUGUAGCGACUAGACGGCACCCACCUAAGGCUAACGAUAUGGUGAAGGCAUAGUCAAGGGAGAGGCGAAAGUCACACAAACCGG [C82G A111G A120C A145U C150A C169A U176A] | 0.0183
GUGCCUUGCGCCGGGAAACCACGCAAGGGAUGGUGUCAAAUUCGGCGAAACCUAAGCGCCCGCCCGGGCGUAUGGCAACGCGGAGCCAAGCUUCGGCGCCUGCGCCGAUGGAGGUGUAGCGACUAGACGGCACCCACCUAAGGCUAACGAUAUGGUGAAGGCAUAGUCCAGGGAGGGGCGAAAGUCACACAAACCGG [C82G A111G A120C A145U C150A U176G] | 0.00773
GUGCCUUGCGCCGGGAAACCACGCAAGGGAUGGUGUCAAAUUCGGCGAAACCUAAGCGCCCGCCCGGGCGUAUGGCAACGCGGAGCCAAGCUUCGGCGCCUGCGCCGAUGGAGGUGUAGCGACUAGACGGCACCCACCUAAGGCUAACGAUAUGGUGAAGGCAUAGUCCAGGGAGAGGCGAAAGUCACACAAACCGG [C82G A111G A120C A145U C150A U176A] | 0.0132
GUGCCUUGCGCCGGGAAACCACGCAAGGGAUGGUGUCAAAUUCGGCGAAACCUAAGCGCCCGCCCGGGCGUAUGGCAACGCGGAGCCAAGCUUCGGCGCCUGCGCCGAUGGAGGUGUAGCGACUAGACGGCACCCACCUAAGGCUAACGAUAUGGUGAAGGCAUAGUCCAGGGAGCGGCGAAAGUCACACAAACCGG [C82G A111G A120C A145U C150A U176C] | 0.0167
GUGCCUUGCGCCGGGAAACCACGCAAGGGAUGGUGUCAAAUUCGGCGAAACCUAAGCGCCCGCCCGGGCGUAUGGCAACGCGGAGCCAAGCUUCGGCGCCUGCGCCGAUGGAGGUGUAGCGACUAGACGGCACCCACCUAAGGCUAACGCUAUGGUGAAGGCAUAGUCCAGGGAGUGGCGAAAGUCACACAAACCGG [C82G A111G A120C A145U] | 0.0901
GUGCCUUGCGCCGGGAAACCACGCAAGGGAUGGUGUCAAAUUCGGCGAAACCUAAGCGCCCGCCCGGGCGUAUGGCAACGCGGAGCCAAGCUUCGGCGCCUGCGCCGAUGGAGGUGUAGCGACUAGACGGCACCCACCUAAGGCUAACGGUAUGGUGAAGGCAUAGUCAAGGGAGCGGCGAAAGUCACACAAACCGG [C82G A111G A120C A145U C150G C169A U176C] | 0.0134
GUGCCUUGCGCCGGGAAACCACGCAAGGGAUGGUGUCAAAUUCGGCGAAACCUAAGCGCCCGCCCGGGCGUAUGGCAACGCGGAGCCAAGCUUCGGCGCCUGCGCCGAUGGAGGUGUAGCGACUAGACGGCACCCACCUAAGGCUAACGGUAUGGUGAAGGCAUAGUCAAGGGAGAGGCGAAAGUCACACAAACCGG [C82G A111G A120C A145U C150G C169A U176A] | 0.0119
GUGCCUUGCGCCGGGAAACCACGCAAGGGAUGGUGUCAAAUUCGGCGAAACCUAAGCGCCCGCCCGGGCGUAUGGCAACGCGGAGCCAAGCUUCGGCGCCUGCGCCGAUGGAGGUGUAGCGACUAGACGGCACCCACCUAAGGCUAACGGUAUGGUGAAGGCAUAGUCAAGGGAGGGGCGAAAGUCACACAAACCGG [C82G A111G A120C A145U C150G C169A U176G] | 0.00589
GUGCCUUGCGCCGGGAAACCACGCAAGGGAUGGUGUCAAAUUCGGCGAAACCUAAGCGCCCGCCCGGGCGUAUGGCAACGCGGAGCCAAGCUUCGGCGCCUGCGCCGAUGGAGGUGUAGCGACUAGACGGCACCCACCUAAGGCUAACGAUAUGGUGAAGGCAUAGUCGAGGGAGUGGCGAAAGUCACACAAACCGG [C82G A111G A120C A145U C150A C169G] | 0.00822
GUGCCUUGCGCCGGGAAACCACGCAAGGGAUGGUGUCAAAUUCGGCGAAACCUAAGCGCCCGCCCGGGCGUAUGGCAACGCGGAGCCAAGCUUCGGCGCCUGCGCCGAUGGAGGUGUAGCGACUAGACGGCACCCACCUAAGGCUAACGAUAUGGUGAAGGCAUAGUCAAGGGAGUGGCGAAAGUCACACAAACCGG [C82G A111G A120C A145U C150A C169A] | 0.0104
GUGCCUUGCGCCGGGAAACCACGCAAGGGAUGGUGUCAAAUUCGGCGAAACCUAAGCGCCCGCCCGGGCGUAUGGCAACGCGGAGCCAAGCUUCGGCGCCUGCGCCGAUGGAGGUGUAGCGACUAGACGGCACCCACCUAAGGCUAACGAUAUGGUGAAGGCAUAGUCUAGGGAGUGGCGAAAGUCACACAAACCGG [C82G A111G A120C A145U C150A C169U] | 0.00952
